Assay results from publication doi:10.1101/2021.04.06.21255004.

Key:
[1] = molecular target: Endothelial nitric oxide synthase (Homo sapiens*) (UniProt P29474)
[2] = molecular target: purified human alpha globin (human) (UniProt P69905); assay: BLI
Chain of purified human alpha globin (human) (P69905 whole entry): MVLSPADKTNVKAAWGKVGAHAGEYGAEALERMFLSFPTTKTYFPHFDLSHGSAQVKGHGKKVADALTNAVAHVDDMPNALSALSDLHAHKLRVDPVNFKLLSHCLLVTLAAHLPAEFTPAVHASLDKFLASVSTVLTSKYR

Chain of recombinant human eNOS oxidase domain (domain or fragment) (P29474 2-1203): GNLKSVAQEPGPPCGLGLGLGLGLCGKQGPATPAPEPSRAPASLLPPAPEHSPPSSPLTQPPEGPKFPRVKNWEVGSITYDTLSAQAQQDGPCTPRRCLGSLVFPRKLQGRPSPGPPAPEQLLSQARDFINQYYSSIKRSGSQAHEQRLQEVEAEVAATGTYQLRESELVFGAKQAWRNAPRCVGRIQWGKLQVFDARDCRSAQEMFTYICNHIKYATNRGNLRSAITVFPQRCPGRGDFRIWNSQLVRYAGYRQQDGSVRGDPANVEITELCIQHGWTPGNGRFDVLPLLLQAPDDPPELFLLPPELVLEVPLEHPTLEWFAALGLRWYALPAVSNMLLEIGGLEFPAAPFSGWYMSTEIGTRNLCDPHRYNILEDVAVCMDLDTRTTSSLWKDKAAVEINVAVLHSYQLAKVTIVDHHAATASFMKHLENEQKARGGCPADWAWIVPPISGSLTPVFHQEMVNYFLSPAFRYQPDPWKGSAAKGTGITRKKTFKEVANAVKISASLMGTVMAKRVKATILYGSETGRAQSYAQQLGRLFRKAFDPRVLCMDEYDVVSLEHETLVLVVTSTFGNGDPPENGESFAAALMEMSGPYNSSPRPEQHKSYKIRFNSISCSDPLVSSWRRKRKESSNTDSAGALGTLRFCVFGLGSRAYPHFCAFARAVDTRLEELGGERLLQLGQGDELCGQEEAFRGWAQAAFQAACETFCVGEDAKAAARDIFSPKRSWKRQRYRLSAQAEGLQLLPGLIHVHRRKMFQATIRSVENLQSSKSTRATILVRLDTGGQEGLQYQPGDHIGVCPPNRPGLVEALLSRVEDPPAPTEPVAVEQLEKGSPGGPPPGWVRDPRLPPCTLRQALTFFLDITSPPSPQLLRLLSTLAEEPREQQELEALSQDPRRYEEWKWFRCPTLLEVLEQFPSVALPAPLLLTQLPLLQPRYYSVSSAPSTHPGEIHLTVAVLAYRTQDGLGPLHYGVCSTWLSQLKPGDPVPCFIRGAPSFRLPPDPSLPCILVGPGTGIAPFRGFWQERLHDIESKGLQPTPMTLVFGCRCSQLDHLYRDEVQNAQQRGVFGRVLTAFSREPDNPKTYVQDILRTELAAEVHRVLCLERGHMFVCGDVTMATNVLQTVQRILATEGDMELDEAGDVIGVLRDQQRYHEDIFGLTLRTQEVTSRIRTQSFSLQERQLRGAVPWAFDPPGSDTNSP
Chain of Endothelial nitric oxide synthase (Homo sapiens*) (P29474 66-492): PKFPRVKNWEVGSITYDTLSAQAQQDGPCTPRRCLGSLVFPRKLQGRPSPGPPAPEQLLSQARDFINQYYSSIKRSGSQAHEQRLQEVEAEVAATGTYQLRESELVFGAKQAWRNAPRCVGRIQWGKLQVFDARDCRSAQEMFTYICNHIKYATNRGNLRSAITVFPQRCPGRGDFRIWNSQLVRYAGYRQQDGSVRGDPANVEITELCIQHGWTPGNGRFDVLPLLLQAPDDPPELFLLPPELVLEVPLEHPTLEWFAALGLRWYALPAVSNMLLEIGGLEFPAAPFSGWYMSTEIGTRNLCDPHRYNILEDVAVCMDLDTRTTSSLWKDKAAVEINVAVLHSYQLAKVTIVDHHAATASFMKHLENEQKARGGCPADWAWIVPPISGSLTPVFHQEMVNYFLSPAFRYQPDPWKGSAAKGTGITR
Chain of Alpha globin (P69905 2-142): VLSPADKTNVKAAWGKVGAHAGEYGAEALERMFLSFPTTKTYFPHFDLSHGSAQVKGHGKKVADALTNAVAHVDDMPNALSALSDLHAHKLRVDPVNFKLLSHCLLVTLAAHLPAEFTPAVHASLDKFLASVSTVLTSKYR

Substance | Kd [1] [nM] | Kd [2] [nM]
Alpha globin (from UniProt P69905) | 1300 | –
recombinant human eNOS oxidase domain (domain or fragment) | – | 1310
